Test results from paper PMC9482650, “Quantitative fragmentomics allow affinity mapping of interactomes” (Nature Communications, 2022).

Biological target: T1, GRIP1_4, Q9Y3R0
T1 sequence (Q9Y3R0 467-571, limits assumed, looked up): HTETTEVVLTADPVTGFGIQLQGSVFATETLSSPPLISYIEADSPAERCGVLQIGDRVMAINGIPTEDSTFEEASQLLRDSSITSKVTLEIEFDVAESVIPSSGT
Assay: holdup assay
Set-up: key: below the threshold = too weak to quantify, mostly under pKd 3.1 to 4
Conditions: plain residues with an end cap or a label only (N-terminal biotin on a linker: ado-ado)

Q: How did the pKd turn out when RRISSLESEV [GRIN2C, Q14957] was run?
A: below the threshold

Biological target: T2, DLG3_2, Q92796
T2 sequence (Q92796 221-321, limits assumed, looked up): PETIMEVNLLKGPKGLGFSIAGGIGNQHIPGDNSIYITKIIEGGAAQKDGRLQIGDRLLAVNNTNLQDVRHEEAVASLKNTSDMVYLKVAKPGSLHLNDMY
Assay: holdup assay
Set-up: key: below the threshold = too weak to quantify, mostly under pKd 3.1 to 4
Conditions: plain residues with an end cap or a label only (N-terminal biotin on a linker: ado-ado)

Q: For RRISSLESEV [GRIN2C, Q14957], which pKd is on record?
A: 5.27

Biological target: HTRA1, Q92743
Sequence (Q92743 360-477): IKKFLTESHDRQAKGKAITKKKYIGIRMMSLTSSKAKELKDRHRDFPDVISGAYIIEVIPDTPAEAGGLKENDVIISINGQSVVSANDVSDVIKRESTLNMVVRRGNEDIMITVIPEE
Assay: holdup assay
Set-up: key: below the threshold = too weak to quantify, mostly under pKd 3.1 to 4
Conditions: plain residues with an end cap or a label only (N-terminal biotin on a linker: ado-ado)

Q: With RRISSLESEV [GRIN2C, Q14957] as the binder, how does the pKd read?
A: 3.82

Biological target: TJP1_3, Q07157
Sequence (Q07157 416-512): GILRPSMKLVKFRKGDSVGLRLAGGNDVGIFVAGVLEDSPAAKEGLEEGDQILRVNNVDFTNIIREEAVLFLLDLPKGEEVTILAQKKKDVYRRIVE
Assay: holdup assay
Set-up: key: below the threshold = too weak to quantify, mostly under pKd 3.1 to 4
Conditions: plain residues with an end cap or a label only (N-terminal biotin on a linker: ado-ado)

Q: RRISSLESEV [GRIN2C, Q14957] was tested. Which pKd did it give?
A: below the threshold

Biological target: T3, RHPN1, Q8TCX5
T3 sequence (Q8TCX5 508-602, limits assumed, looked up): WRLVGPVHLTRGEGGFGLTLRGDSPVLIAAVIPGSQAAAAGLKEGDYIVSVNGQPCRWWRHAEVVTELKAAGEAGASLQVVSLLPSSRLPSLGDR
Assay: holdup assay
Set-up: key: below the threshold = too weak to quantify, mostly under pKd 3.1 to 4
Conditions: plain residues with an end cap or a label only (N-terminal biotin on a linker: ado-ado)

Q: RRISSLESEV [GRIN2C, Q14957] was tested. Which pKd did it give?
A: 4.66

Biological target: T4, PARD3B_1, Q8TEW8
T4 sequence (Q8TEW8 196-299, limits assumed, looked up): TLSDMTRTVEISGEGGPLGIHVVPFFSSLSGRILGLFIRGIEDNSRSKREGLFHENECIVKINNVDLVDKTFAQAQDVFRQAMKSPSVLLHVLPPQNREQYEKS
Assay: holdup assay
Set-up: key: below the threshold = too weak to quantify, mostly under pKd 3.1 to 4
Conditions: plain residues with an end cap or a label only (N-terminal biotin on a linker: ado-ado)

Q: With RRISSLESEV [GRIN2C, Q14957] as the binder, how does the pKd read?
A: below the threshold

Biological target: T5, MPDZ_10, O75970
T5 sequence (O75970 1624-1722, limits assumed, looked up): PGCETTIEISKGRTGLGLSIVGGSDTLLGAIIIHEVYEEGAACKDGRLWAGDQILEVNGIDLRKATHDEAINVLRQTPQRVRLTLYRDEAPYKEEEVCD
Assay: holdup assay
Set-up: key: below the threshold = too weak to quantify, mostly under pKd 3.1 to 4
Conditions: plain residues with an end cap or a label only (N-terminal biotin on a linker: ado-ado)

Q: For RRISSLESEV [GRIN2C, Q14957], which pKd is on record?
A: below the threshold

Biological target: T6, HTRA3, P83110
T6 sequence (P83110 354-453, limits assumed, looked up): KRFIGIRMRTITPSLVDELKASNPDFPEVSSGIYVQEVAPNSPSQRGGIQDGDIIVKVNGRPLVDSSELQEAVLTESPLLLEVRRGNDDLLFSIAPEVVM
Assay: holdup assay
Set-up: key: below the threshold = too weak to quantify, mostly under pKd 3.1 to 4
Conditions: plain residues with an end cap or a label only (N-terminal biotin on a linker: ado-ado)

Q: RRISSLESEV [GRIN2C, Q14957] was tested. Which pKd did it give?
A: below the threshold

Biological target: LAP2, Q96RT1
Sequence (Q96RT1 other isoform, or with tags, fused parts or gaps): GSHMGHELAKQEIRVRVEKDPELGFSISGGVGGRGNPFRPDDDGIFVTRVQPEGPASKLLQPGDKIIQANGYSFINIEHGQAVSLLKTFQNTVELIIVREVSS
Assay: holdup assay
Set-up: key: below the threshold = too weak to quantify, mostly under pKd 3.1 to 4
Conditions: plain residues with an end cap or a label only (N-terminal biotin on a linker: ado-ado)

Q: Which pKd does the source give for RRISSLESEV [GRIN2C, Q14957] here?
A: 4.46

Biological target: Inadl_10, Q8NI35
Sequence (Q8NI35 1673-1763): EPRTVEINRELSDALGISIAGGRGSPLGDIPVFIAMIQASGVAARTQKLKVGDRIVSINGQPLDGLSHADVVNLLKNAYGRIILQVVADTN
Assay: holdup assay
Set-up: key: below the threshold = too weak to quantify, mostly under pKd 3.1 to 4
Conditions: plain residues with an end cap or a label only (N-terminal biotin on a linker: ado-ado)

Q: How did the pKd turn out when RRISSLESEV [GRIN2C, Q14957] was run?
A: below the threshold

Biological target: IL16_1, Q14005
Sequence (Q14005 210-306): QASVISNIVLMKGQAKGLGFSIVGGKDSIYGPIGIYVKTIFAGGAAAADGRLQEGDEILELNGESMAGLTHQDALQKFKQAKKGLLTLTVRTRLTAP
Assay: holdup assay
Set-up: key: below the threshold = too weak to quantify, mostly under pKd 3.1 to 4
Conditions: plain residues with an end cap or a label only (N-terminal biotin on a linker: ado-ado)

Q: Which pKd does the source give for RRISSLESEV [GRIN2C, Q14957] here?
A: 4.55

Biological target: T7, DFNB31_1, Q9P202
T7 sequence (Q9P202 135-233, limits assumed, looked up): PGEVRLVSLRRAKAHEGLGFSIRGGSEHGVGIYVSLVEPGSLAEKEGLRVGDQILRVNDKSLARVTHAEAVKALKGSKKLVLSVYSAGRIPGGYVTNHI
Assay: holdup assay
Set-up: key: below the threshold = too weak to quantify, mostly under pKd 3.1 to 4
Conditions: plain residues with an end cap or a label only (N-terminal biotin on a linker: ado-ado)

Q: How did the pKd turn out when RRISSLESEV [GRIN2C, Q14957] was run?
A: 3.67

Biological target: T8, DLG3_1, Q92796
T8 sequence (Q92796 125-227, limits assumed, looked up): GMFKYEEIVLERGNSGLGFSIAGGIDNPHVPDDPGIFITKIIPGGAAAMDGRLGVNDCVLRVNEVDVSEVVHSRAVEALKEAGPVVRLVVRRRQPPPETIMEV
Assay: holdup assay
Set-up: key: below the threshold = too weak to quantify, mostly under pKd 3.1 to 4
Conditions: plain residues with an end cap or a label only (N-terminal biotin on a linker: ado-ado)

Q: RRISSLESEV [GRIN2C, Q14957] was tested. Which pKd did it give?
A: 4.37

Biological target: Inadl_5, Q8NI35
Sequence (Q8NI35 673-780): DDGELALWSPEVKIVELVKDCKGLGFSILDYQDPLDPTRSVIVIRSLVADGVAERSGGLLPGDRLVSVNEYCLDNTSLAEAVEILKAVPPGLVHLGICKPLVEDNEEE
Assay: holdup assay
Set-up: key: below the threshold = too weak to quantify, mostly under pKd 3.1 to 4
Conditions: plain residues with an end cap or a label only (N-terminal biotin on a linker: ado-ado)

Q: How did the pKd turn out when RRISSLESEV [GRIN2C, Q14957] was run?
A: below the threshold

Biological target: GORASP2, Q9H8Y8
Assay: holdup assay
Set-up: key: below the threshold = too weak to quantify, mostly under pKd 3.1 to 4
Conditions: plain residues with an end cap or a label only (N-terminal biotin on a linker: ado-ado)

Q: For RRISSLESEV [GRIN2C, Q14957], which pKd is on record?
A: below the threshold

Biological target: DLG4_1, P78352
Sequence (P78352 62-152): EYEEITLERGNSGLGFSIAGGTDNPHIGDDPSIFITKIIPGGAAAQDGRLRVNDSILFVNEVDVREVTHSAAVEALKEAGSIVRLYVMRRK
Assay: holdup assay
Set-up: key: below the threshold = too weak to quantify, mostly under pKd 3.1 to 4
Conditions: plain residues with an end cap or a label only (N-terminal biotin on a linker: ado-ado)

Q: With RRISSLESEV [GRIN2C, Q14957] as the binder, how does the pKd read?
A: 4.68

Biological target: NOS1, P29475
Sequence (P29475 9-101): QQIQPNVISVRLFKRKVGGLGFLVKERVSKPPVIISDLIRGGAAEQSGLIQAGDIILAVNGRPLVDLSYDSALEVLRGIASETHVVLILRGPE
Assay: holdup assay
Set-up: key: below the threshold = too weak to quantify, mostly under pKd 3.1 to 4
Conditions: plain residues with an end cap or a label only (N-terminal biotin on a linker: ado-ado)

Q: How did the pKd turn out when RRISSLESEV [GRIN2C, Q14957] was run?
A: 3.96

Biological target: NHERF4_4, Q86UT5
Sequence (Q86UT5 464-550): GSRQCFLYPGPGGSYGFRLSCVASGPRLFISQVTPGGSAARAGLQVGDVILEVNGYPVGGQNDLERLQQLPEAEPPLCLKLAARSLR
Assay: holdup assay
Set-up: key: below the threshold = too weak to quantify, mostly under pKd 3.1 to 4
Conditions: plain residues with an end cap or a label only (N-terminal biotin on a linker: ado-ado)

Q: Which pKd does the source give for RRISSLESEV [GRIN2C, Q14957] here?
A: below the threshold

Biological target: DLG1_3, Q12959
Sequence (Q12959 457-571): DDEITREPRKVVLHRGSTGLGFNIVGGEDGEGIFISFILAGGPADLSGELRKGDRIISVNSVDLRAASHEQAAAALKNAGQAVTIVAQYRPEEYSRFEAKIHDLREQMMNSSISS
Assay: holdup assay
Set-up: key: below the threshold = too weak to quantify, mostly under pKd 3.1 to 4
Conditions: plain residues with an end cap or a label only (N-terminal biotin on a linker: ado-ado)

Q: For RRISSLESEV [GRIN2C, Q14957], which pKd is on record?
A: 4.09

Biological target: Inadl_9, Q8NI35
Sequence (Q8NI35 1530-1615): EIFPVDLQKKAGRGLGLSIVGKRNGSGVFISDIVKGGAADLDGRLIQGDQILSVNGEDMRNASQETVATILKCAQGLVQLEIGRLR
Assay: holdup assay
Set-up: key: below the threshold = too weak to quantify, mostly under pKd 3.1 to 4
Conditions: plain residues with an end cap or a label only (N-terminal biotin on a linker: ado-ado)

Q: How did the pKd turn out when RRISSLESEV [GRIN2C, Q14957] was run?
A: below the threshold

Biological target: TJP2_1, Q9UDY2
Sequence (Q9UDY2 24-128): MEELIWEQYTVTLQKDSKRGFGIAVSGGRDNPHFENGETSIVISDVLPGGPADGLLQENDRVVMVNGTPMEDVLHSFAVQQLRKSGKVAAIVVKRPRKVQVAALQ
Assay: holdup assay
Set-up: key: below the threshold = too weak to quantify, mostly under pKd 3.1 to 4
Conditions: plain residues with an end cap or a label only (N-terminal biotin on a linker: ado-ado)

Q: For RRISSLESEV [GRIN2C, Q14957], which pKd is on record?
A: below the threshold

Biological target: T9, PTPN13_1, Q12923
T9 sequence (Q12923 1088-1188, limits assumed, looked up): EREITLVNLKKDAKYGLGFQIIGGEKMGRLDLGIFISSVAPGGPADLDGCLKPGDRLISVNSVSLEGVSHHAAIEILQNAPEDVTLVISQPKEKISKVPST
Assay: holdup assay
Set-up: key: below the threshold = too weak to quantify, mostly under pKd 3.1 to 4
Conditions: plain residues with an end cap or a label only (N-terminal biotin on a linker: ado-ado)

Q: For RRISSLESEV [GRIN2C, Q14957], which pKd is on record?
A: below the threshold

Biological target: T10, LIN7B, Q9HAP6
T10 sequence (Q9HAP6 88-185, limits assumed, looked up): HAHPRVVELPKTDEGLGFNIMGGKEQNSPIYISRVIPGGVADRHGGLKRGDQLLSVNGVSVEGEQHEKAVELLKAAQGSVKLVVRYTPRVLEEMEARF
Assay: holdup assay
Set-up: key: below the threshold = too weak to quantify, mostly under pKd 3.1 to 4
Conditions: plain residues with an end cap or a label only (N-terminal biotin on a linker: ado-ado)

Q: Which pKd does the source give for RRISSLESEV [GRIN2C, Q14957] here?
A: 4.12

Biological target: T11, GRIP1_2, Q9Y3R0
T11 sequence (Q9Y3R0 145-248, limits assumed, looked up): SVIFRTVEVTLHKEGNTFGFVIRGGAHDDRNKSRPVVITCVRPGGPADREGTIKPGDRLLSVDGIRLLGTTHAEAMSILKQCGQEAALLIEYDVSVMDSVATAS
Assay: holdup assay
Set-up: key: below the threshold = too weak to quantify, mostly under pKd 3.1 to 4
Conditions: plain residues with an end cap or a label only (N-terminal biotin on a linker: ado-ado)

Q: RRISSLESEV [GRIN2C, Q14957] was tested. Which pKd did it give?
A: below the threshold

Biological target: T12, SYNJ2BP, P57105
T12 sequence (P57105 8-110, limits assumed, looked up): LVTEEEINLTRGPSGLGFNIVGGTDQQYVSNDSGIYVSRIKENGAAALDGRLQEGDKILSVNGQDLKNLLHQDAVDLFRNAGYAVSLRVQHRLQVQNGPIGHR
Assay: holdup assay
Set-up: key: below the threshold = too weak to quantify, mostly under pKd 3.1 to 4
Conditions: plain residues with an end cap or a label only (N-terminal biotin on a linker: ado-ado)

Q: How did the pKd turn out when RRISSLESEV [GRIN2C, Q14957] was run?
A: 5.38
